Measured values from patent publication US20090029924A1.

B1: RRRKKRT (peptide)
peptide: RRRKKRT
modifications: not checked
B2: RRKKRT (peptide)
peptide: RRKKRT
modifications: not checked
B3: … (peptide)
peptide: TPRERRRKAAV
modifications: not checked
B4: RKKRT (peptide)
peptide: RKKRT
modifications: not checked

Target: Recombinant human furin (human), P09958
Experiment: furin, Pyr-RTKR-AMC cleavage

Recombinant human furin (human), P09958, sequence (P09958 108-714 limits assumed): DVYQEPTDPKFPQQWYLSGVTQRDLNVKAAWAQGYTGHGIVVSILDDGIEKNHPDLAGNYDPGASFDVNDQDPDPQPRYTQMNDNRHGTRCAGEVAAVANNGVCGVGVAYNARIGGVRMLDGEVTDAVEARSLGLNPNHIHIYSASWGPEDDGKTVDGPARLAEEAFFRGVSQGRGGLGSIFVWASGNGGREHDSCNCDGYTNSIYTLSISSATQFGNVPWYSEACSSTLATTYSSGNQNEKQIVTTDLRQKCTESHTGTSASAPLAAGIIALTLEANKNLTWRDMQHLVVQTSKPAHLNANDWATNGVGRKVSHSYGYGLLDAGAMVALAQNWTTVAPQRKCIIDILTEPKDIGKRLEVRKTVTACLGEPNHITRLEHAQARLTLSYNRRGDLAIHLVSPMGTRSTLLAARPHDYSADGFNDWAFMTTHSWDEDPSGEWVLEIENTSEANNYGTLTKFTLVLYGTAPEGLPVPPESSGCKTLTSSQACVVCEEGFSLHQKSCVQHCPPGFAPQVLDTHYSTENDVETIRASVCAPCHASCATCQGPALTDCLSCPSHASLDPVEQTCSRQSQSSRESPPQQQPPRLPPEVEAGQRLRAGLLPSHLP

First: B1
Second: B2
The Ki of the first is 1.8-fold lower: 17.6 nM for the first, 32.5 nM for the second. The first binds more tightly here.

B3 and B4 cannot be ordered by Ki: > 100 nM for the first, 1000 nM for the second.
